Broadly, the Kd is the concentration at which binding is half-saturated.

This assay addresses T1, extracellular domain of mouse PIR-B (Domains 1 to 6), biotinylated (mouse, UniProt P97484 25-642, biotinylated with BirA (site not stated)).
T1 construct: The full-length protein is cited as NCBI NM_011095; also called Paired-Immunoglobulin-like Receptor B; PIR-B (extracellular domain)
T1 sequence: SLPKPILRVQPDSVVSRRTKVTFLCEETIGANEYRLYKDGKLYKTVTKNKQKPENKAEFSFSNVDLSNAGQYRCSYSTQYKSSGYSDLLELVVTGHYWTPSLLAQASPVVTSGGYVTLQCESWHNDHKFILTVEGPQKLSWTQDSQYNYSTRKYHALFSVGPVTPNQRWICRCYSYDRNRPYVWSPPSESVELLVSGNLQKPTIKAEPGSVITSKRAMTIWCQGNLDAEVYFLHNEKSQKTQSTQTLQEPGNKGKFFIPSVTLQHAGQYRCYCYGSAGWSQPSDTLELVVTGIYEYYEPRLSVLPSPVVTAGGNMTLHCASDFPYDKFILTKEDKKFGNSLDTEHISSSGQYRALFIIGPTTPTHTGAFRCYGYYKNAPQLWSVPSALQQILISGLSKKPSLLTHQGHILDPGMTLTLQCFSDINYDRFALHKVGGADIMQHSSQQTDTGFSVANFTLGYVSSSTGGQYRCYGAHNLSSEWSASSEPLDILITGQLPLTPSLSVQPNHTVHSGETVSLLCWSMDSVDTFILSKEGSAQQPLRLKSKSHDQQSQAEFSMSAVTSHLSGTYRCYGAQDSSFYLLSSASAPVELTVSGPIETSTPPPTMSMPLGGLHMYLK
Kind of assay: SPR (BIAcore 3000), biotinylated PIR-B extracellular domain on streptavidin chip, HLA-G2 0.10-1.56 µM as analyte, 1:1 binding model. As for the experimental part:
Using BIAcore® 3000 (GE healthcare BIAcore), the affinity between HLA-G2 and the extracellular domain of PIR-B prepared as described above was determined in a surface plasmon resonance experiment. Streptavidin was first covalently fixed on a research grade sensor chip, and then the biotinylated extracellular domain of PIR-B or BSA as a negative control was fixed via the streptavidin. Then, a solution of HLA-G [α1-3] dimer in HBS-EP running buffer (10 mM HEPES pH7.5, 150 mM sodium chloride, 3.4 mM EDTA, 0.005% Surfactant P20) was run at 5 μL/min. Kinetics analysis of binding response was performed at various concentrations by subtracting the response measured in a control flow cell from the response measured in a sample flow cell. BIAevaluation version 4.1.1 (GE Healthcare) was used in the analysis.

B1: HLA-G2 (HLA-G [α1-3] dimer; complex of the α1 and α3 domains of the HLA-G molecule) (ligand)
chain: GSHSMRYFSAAVSRPGRGEPRFIAMGYVDDTQFVRFDSDSACPRMEPRAPWVEQEGPEYWEEETRNTKAHAQTDRMNLQTLRGYYNQSEANPPKTHVTHHPVFDYEATLRCWALGFYPAEIILTWQRDGEDQTQDVELVETRPAGDGTFQKWAAVVVPSGEEQRYTCHVQHEGLPEPLMLRW
notes: It was run in SPR as 'HLA-G [α1-3] dimer'; also called α1-3 complex
For B1, the equilibrium dissociation constant (Kd) came out at 142 nM.
